B1: 1A9 (antibody, V domains shown)
VH: VQLQESGPGLVKPSETLSLTCAVSGDSISTGYDWTWIRQPPGKGLEWIGYIGGSSGNTNYNPSLKSRVTISKDTSKNQFSLKLSSVTAADTAVYYCARDGTRVYYYGLDSWGQGVVVTVSS
VL: ETVVTQEPSLSVSPGGTVTLTCGLSSGSVSTSNYPSWFQQTPGQAPRMLIYSTNIRPSGVPNRFSGSILGNKAALTITGAQADDESDYYCFFSMVSGTSVFGGGTRLTVLR
B2: 2B6 (antibody, V domains shown)
VH: QVQLVQSGAEVKKPGASVKLSCKASGYTFTSFYINWVRQAPGQVLEWMGWINPSNGDTGYAQKFQGRVTMSRDTSTSTAYMELSSLRSEDTAVYYCTRETVGSGTFDCWGQGVLVTVSS
VL: DIVMTQTPLSLSVTLGEPASISCRSSQSLVYSAGKTYLDWYLQKPGQSPQLLIYLVSKRASGVPDKFSGSGSGTDFTLKISRVEAEDVGVYYCMQALRSPLTFGGGTKVELK
notes: also called antibody 2B6; monoclonal antibody 2B6; copies: 2 + 2
B3: 1F9 (antibody, V domains shown)
VH: QVQLQESGPGLVKPSETLSLSCAVSGGSFSDYWWGWIRQSPGKGLEWIGSIYGSSGRTAYSPSLKSRATISRDTSKNQLFLRLTSVTAADTGVYYCTNERFYGDSNRFDVWGPGVLVTVSS
VL: QPVLTQPTSLSASPGASARLTCTLSSGISVGNYRIFWYQQKPGSPPRYLLNYHTDSDKHQGSGVPSRFSGSKDASANAGILLISGLQSEDEADYYCMIWHNNVDVFGGGTKLTVLR
B4: 1D11 (antibody, V domains shown)
VH: EVQLVESGGGLVQPGGSLRLSCAASGFTFSSYDMSWVRQAPGKGLEWVSSISSVTSYISYADSVKGRFTISRDNAKNSLSLQMNSLKTEDTAVYYCTTENWNFDFWGQGVLVTVSS
VL: DVVMTQSPLSLATTPGQPASISCRSSQSLVHSNGNTYLSWYQQKPGQPPRLLIYEVSNRDSGVPDRFSGSGAGTDFTLKISRVEAEDVGVYYCGQGTHWPPFTFGPGTKLDIK
notes: also called antibody 1D11; monoclonal antibody 1D11; copies: 2 + 2

Legend:
[1] = target: NiV-BD G (Nipah virus, Bangladesh strain (NiV-BD)); assay: ELISA, G protein coated at 1 µg/mL, antibody titrated 1:3 from 20 µg/mL
[2] = target: NiV-BD G (Nipah virus, Bangladesh strain (NiV-BD)); assay: cell-based or functional assay
NiV-MY G [3] = target: T1, NiV-MY G (Nipah virus, Malaysia strain (NiV-MY), UniProt Q9IH62 71-602); assay: cell-based or functional assay
T1 sequence: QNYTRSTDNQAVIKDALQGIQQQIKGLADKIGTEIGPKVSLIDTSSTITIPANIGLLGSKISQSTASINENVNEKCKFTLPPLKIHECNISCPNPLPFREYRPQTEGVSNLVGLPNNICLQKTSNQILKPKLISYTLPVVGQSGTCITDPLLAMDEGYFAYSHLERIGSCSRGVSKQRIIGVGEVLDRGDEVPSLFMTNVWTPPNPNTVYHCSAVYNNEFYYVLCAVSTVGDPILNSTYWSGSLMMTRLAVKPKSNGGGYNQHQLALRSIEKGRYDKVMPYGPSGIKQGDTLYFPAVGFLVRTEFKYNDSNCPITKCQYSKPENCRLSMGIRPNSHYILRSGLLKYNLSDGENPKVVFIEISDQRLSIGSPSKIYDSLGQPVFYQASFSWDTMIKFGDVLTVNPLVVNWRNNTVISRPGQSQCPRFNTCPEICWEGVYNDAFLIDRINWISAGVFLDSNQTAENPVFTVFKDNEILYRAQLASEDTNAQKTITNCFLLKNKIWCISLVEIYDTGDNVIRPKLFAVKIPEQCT

NiV-MY G [4] = target: T1, NiV-MY G; assay: ELISA, G protein coated at 1 µg/mL, antibody titrated 1:3 from 20 µg/mL

| Binder | EC50 [1] [µg/mL] | neutralization of HIV-NiV-BD pseudovirus (luciferase, 293T cells) [2] [%] | half inhibiting concentration (IC50), NiV-MY pseudovirus neutralization (NiV-MY G [3]) [µg/mL] | EC50 (NiV-MY G [4]) [µg/mL] |
| --- | --- | --- | --- | --- |
| B1 | 0.0183 |  |  |  |
| B2 | 0.0054 | 100 | 0.0283 | 0.00956 |
| B3 | 0.015 | 100 |  |  |
| B4 | 0.00991 | 100 | 0.0579 | 0.0202 |

Source: patent US20240158480A1 (ACADEMY OF MILITARY MEDICAL SCIENCE PLA, published 2024)
